Laboratory results reported in paper PMC4490372, “Architecture of TFIIIC and its role in RNA polymerase III pre-initiation complex assembly” (Nature Communications, 2015).

How the values were obtained:
[1] = target: T1, τ138 (Tfc3), τB subunit of endogenous S. cerevisiae TFIIIC (S. cerevisiae, UniProt P34111 1-1160); assay: cross-linking; XL-MS: purified endogenous TFIIIC (30 μg, 1 μg/μl) cross-linked with H12/D12 DSS to 2 mM, 40 min at 37 °C; ld-score >25; conditions: both partners purified
T1 construct: τ138 (Tfc3), subunit of S. cerevisiae TFIIIC, endogenous subunit in the purified complex; source: endogenous, purified from S. cerevisiae strain SC2342 as part of TFIIIC (TAP tag on τ60)
T1 sequence (looked up): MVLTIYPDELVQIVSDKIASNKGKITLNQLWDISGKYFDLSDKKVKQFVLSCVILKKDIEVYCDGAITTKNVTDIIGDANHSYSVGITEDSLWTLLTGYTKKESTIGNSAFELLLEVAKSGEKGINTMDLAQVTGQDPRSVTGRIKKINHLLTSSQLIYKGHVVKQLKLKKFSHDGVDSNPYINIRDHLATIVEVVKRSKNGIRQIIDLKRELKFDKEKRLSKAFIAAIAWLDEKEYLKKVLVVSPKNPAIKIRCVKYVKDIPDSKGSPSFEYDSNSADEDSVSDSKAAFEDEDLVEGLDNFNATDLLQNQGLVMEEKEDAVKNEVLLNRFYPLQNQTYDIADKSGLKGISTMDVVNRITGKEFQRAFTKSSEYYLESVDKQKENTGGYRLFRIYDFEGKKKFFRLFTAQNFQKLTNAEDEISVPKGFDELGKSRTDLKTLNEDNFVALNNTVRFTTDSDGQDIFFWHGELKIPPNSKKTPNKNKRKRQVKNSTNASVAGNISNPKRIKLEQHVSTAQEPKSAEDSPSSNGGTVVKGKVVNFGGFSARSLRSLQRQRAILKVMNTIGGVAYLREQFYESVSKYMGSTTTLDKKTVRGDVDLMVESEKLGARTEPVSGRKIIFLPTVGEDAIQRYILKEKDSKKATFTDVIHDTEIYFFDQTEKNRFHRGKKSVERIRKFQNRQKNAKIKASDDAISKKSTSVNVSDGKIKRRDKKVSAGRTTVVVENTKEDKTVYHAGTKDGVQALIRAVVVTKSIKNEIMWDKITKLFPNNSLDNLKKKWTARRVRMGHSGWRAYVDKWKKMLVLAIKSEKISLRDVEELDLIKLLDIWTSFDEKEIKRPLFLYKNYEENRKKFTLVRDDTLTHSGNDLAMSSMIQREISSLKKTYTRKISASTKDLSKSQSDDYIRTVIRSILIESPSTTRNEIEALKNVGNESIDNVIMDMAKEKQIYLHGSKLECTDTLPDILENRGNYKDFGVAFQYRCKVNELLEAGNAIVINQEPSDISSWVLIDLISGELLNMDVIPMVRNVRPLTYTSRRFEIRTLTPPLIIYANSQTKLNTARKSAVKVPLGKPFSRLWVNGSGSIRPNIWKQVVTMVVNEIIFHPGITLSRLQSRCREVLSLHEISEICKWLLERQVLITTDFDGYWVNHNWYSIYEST

[2] = target: T2, τ131 (123–566) E472K (S. cerevisiae, UniProt P33339 123-566, E472K); assay: ITC
T2 sequence: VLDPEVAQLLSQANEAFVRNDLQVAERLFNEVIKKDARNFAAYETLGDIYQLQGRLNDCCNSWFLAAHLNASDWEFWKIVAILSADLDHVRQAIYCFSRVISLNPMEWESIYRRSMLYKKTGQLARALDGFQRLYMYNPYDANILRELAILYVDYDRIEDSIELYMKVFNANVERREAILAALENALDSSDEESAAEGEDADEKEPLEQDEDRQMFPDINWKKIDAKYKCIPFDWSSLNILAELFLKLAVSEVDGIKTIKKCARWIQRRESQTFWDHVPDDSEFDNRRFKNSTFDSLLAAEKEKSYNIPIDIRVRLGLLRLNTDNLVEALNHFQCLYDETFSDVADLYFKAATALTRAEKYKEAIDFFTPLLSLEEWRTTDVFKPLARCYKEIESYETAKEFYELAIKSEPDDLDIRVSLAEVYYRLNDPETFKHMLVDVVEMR

[3] = target: T3, τ131 (123–566) E497K (S. cerevisiae, UniProt P33339 123-566, E497K); assay: ITC
T3 sequence: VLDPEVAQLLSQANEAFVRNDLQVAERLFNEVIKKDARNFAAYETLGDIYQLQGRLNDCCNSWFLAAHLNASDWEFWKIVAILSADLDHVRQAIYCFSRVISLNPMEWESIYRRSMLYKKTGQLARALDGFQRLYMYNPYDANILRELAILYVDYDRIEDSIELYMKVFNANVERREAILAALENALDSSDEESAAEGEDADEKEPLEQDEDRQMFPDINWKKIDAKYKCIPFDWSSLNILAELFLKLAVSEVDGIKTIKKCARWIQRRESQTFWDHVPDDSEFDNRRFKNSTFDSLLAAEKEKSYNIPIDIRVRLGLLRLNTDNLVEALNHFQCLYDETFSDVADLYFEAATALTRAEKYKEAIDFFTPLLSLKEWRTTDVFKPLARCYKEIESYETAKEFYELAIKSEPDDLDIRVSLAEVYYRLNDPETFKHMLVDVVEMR

[4] = target: T4, τ131 (123–566) E498K (S. cerevisiae, UniProt P33339 123-566, E498K); assay: ITC
T4 sequence: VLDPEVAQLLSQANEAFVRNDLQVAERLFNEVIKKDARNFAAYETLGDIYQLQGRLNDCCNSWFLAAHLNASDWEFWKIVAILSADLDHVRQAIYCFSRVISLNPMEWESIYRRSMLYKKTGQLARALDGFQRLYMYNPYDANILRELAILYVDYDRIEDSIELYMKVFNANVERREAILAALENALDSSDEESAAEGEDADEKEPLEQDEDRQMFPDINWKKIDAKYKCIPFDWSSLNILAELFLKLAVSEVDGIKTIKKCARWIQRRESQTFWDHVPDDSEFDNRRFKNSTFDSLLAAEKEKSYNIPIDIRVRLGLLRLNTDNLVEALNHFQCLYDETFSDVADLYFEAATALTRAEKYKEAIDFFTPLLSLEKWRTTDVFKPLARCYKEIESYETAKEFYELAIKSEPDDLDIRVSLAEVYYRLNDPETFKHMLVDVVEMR

[5] = target: T5, τ131 (123–566), TPR array, wild type (S. cerevisiae, UniProt P33339 123-566); assay: ITC; MicroCal ITC200; 15 μM τ138 in the cell, 150 μM τ131 in the syringe; 20 mM Tris pH 7.5, 150 mM NaCl, 2 mM β-mercaptoethanol; 25 °C; conditions: both partners purified
T5 construct: also called τ131 TPR array; source: E. coli BL21 Star (DE3) pRARE, purified (Ni-NTA, TEV cleavage, S200 SEC); not shown: His6, N-terminal, cleaved
T5 sequence (looked up): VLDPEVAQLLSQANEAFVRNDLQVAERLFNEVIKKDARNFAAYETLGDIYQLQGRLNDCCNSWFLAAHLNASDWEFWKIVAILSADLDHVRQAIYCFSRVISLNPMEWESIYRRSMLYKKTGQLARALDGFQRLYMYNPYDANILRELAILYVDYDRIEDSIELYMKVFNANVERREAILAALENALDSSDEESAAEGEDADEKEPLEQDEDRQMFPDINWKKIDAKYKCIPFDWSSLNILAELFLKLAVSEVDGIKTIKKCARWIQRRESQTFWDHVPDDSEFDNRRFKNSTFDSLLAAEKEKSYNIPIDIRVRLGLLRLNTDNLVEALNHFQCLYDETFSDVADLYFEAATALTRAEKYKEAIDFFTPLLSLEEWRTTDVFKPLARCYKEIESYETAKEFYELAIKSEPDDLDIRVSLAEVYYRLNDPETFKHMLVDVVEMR

[6] = target: T6, τ131 (123–566) E498K (S. cerevisiae, UniProt P33339 123-566, E498K); assay: as above; conditions: both partners purified
T6 construct: source: E. coli, purified by the same method as the wild type; not shown: His6, N-terminal, cleaved
T6 sequence (looked up): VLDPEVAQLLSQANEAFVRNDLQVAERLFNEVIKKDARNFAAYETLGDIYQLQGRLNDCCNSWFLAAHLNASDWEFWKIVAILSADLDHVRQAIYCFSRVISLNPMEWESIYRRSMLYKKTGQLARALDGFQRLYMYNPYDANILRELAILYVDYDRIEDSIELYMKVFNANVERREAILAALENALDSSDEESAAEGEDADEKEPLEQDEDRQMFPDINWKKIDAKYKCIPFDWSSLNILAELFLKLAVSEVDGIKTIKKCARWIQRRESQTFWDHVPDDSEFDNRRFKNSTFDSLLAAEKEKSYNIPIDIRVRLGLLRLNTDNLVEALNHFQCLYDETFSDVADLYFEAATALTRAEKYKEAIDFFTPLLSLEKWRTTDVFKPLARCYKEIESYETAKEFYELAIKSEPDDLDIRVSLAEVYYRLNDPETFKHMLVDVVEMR

[7] = target: T7, τ131 (123–566) E472K (S. cerevisiae, UniProt P33339 123-566, E472K); assay: as above; conditions: both partners purified
T7 construct: source: E. coli, purified by the same method as the wild type; not shown: His6, N-terminal, cleaved
T7 sequence (looked up): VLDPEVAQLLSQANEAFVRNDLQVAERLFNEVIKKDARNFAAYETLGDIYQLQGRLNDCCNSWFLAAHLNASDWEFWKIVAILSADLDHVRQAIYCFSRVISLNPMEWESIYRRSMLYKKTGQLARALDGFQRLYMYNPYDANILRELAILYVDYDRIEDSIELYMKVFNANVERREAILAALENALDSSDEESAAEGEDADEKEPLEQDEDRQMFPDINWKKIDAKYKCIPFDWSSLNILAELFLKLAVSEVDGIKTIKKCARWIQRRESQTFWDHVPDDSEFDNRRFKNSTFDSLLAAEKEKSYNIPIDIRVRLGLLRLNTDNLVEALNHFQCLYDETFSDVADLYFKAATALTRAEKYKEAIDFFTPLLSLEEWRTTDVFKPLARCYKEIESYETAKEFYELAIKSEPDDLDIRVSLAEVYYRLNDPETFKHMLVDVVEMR

[8] = target: T8, τ131 (123–566) E497K (S. cerevisiae, UniProt P33339 123-566, E497K); assay: as above; conditions: both partners purified
T8 construct: source: E. coli, purified by the same method as the wild type; not shown: His6, N-terminal, cleaved
T8 sequence (looked up): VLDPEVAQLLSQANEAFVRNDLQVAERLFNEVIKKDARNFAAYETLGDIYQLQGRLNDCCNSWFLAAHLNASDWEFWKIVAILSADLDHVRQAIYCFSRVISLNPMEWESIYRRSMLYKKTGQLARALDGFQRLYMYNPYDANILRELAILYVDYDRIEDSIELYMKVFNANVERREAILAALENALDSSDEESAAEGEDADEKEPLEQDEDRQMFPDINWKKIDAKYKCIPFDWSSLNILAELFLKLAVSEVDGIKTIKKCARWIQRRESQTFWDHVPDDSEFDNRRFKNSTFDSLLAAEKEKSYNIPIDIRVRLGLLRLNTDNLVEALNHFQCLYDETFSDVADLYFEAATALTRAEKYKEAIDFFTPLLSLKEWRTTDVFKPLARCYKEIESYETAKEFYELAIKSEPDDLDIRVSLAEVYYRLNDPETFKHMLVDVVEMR

Binder	binding result [1]	Kd [2] [nM]	Kd [3] [nM]	Kd [4] [nM]	Kd [5] [nM]	binding result [6]	binding result [7]	binding result [8]
τ131 (Tfc4), τA subunit of endogenous S. cerevisiae TFIIIC (natural protein, UniProt P33339 1-1025, looked up, τ131 (Tfc4), subunit of S. cerevisiae TFIIIC, endogenous subunit in the purified complex; Endogenous subunit; source: endogenous, purified from S. cerevisiae strain SC2342 as part of TFIIIC (TAP tag on τ60)) MAAGKLKKEQQNQSAERESADTGKVNDEDEEHLYGNIDDYKHLIQDEEYDDEDVPHDLQLSEDEYNSERDSSLLAEFSDYGEISEDDEEDFMNAIREASNFKVKKKKKNDKGKSYGRQRKERVLDPEVAQLLSQANEAFVRNDLQVAERLFNEVIKKDARNFAAYETLGDIYQLQGRLNDCCNSWFLAAHLNASDWEFWKIVAILSADLDHVRQAIYCFSRVISLNPMEWESIYRRSMLYKKTGQLARALDGFQRLYMYNPYDANILRELAILYVDYDRIEDSIELYMKVFNANVERREAILAALENALDSSDEESAAEGEDADEKEPLEQDEDRQMFPDINWKKIDAKYKCIPFDWSSLNILAELFLKLAVSEVDGIKTIKKCARWIQRRESQTFWDHVPDDSEFDNRRFKNSTFDSLLAAEKEKSYNIPIDIRVRLGLLRLNTDNLVEALNHFQCLYDETFSDVADLYFEAATALTRAEKYKEAIDFFTPLLSLEEWRTTDVFKPLARCYKEIESYETAKEFYELAIKSEPDDLDIRVSLAEVYYRLNDPETFKHMLVDVVEMRKHQVDETLHRISNEKSSNDTSDISSKPLLEDSKFRTFRKKKRTPYDAERERIERERRITAKVVDKYEKMKKFELNSGLNEAKQASIWINTVSELVDIFSSVKNFFMKSRSRKFVGILRRTKKFNTELDFQIERLSKLAEGDSVFEGPLMEERVTLTSATELRGLSYEQWFELFMELSLVIAKYQSVEDGLSVVETAQEVNVFFQDPERVKMMKFVKLAIVLQMDDEEELAENLRGLLNQFQFNRKVLQVFMYSLCRGPSSLNILSSTIQQKFFLRQLKAFDSCRYNTEVNGQASITNKEVYNPNKKSSPYLYYIYAVLLYSSRGFLSALQYLTRLEEDIPDDPMVNLLMGLSHIHRAMQRLTAQRHFQIFHGLRYLYRYHKIRKSLYTDLEKQEADYNLGRAFHLIGLVSIAIEYYNRVLENYDDGKLKKHAAYNSIIIYQQSGNVELADHLMEKYLSI	binds	–	–	–	–	–	–	–
τ138 (641–693), τ131-Interaction Region (τIR) (domain or fragment, S. cerevisiae, UniProt P34111 641-693, looked up, The cloning and tag of this construct as used for ITC and SEC are not described; also called τ138 (τIR); unstructured region of τ138; source: purified; expression of this construct not described) SKKATFTDVIHDTEIYFFDQTEKNRFHRGKKSVERIRKFQNRQKNAKIKASDD	–	833	89	833	~80	binds	binds	binds
